{"source": "ChEMBL document CHEMBL2074044", "about": "“Two distinct mechanisms for bilirubin glucuronide transport by rat bile canalicular membrane vesicles. Demonstration of defective ATP-dependent transport in rats (TR-) with inherited conjugated hyperbilirubinemia” (J Clin Invest, 1992)", "proteins": {"B1": {"name": "ATP-binding cassette sub-family C member 2 (Rattus norvegicus) (protein)", "chain": "MDKFCNSTFWDLSLLESPEADLPLCFEQTVLVWIPLGFLWLLAPWQLYSVYRSRTKRSSITKFYLAKQVFVVFLLILAAIDLSLALTEDTGQATVPPVRYTNPILYLCTWLLVLAVQHSRQWCVRKNSWFLSLFWILSVLCGVFQFQTLIRALLKDSKSNMAYSYLFFVSYGFQIVLLILTAFSGPSDSTQTPSVTASFLSSITFSWYDRTVLKGYKHPLTLEDVWDIDEGFKTRSVTSKFEAAMTKDLQKARQAFQRRLQKSQRKPEATLHGLNKKQSQSQDVLVLEEAKKKSEKTTKDYPKSWLIKSLFKTFHVVILKSFILKLIHDLLVFLNPQLLKLLIGFVKSSNSYVWFGYICAILMFAVTLIQSFCLQSYFQHCFVLGMCVRTTVMSSIYKKALTLSNLARKQYTIGETVNLMSVDSQKLMDATNYMQLVWSSVIQITLSIFFLWRELGPSILAGVGVMVLLIPVNGVLATKIRNIQVQNMKNKDKRLKIMNEILSGIKILKYFAWEPSFQEQVQGIRKKELKNLLRFGQLQSLLIFILQITPILVSVVTFSVYVLVDSANVLNAEKAFTSITLFNILRFPLSMLPMVTSSILQASVSVDRLERYLGGDDLDTSAIRRVSNFDKAVKFSEASFTWDPDLEATIQDVNLDIKPGQLVAVVGTVGSGKSSLVSAMLGEMENVHGHITIQGSTAYVPQQSWIQNGTIKDNILFGSEYNEKKYQQVLKACALLPDLEILPGGDMAEIGEKGINLSGGQKQRVSLARAAYQDADIYILDDPLSAVDAHVGKHIFNKVVGPNGLLAGKTRIFVTHGIHFLPQVDEIVVLGKGTILEKGSYRDLLDKKGVFARNWKTFMKHSGPEGEATVNNDSEAEDDDDGLIPTMEEIPEDAASLAMRRENSLRRTLSRSSRSSSRRGKSLKNSLKIKNVNVLKEKEKEVEGQKLIKKEFVETGKVKFSIYLKYLQAVGWWSILFIILFYGLNNVAFIGSNLWLSAWTSDSDNLNGTNNSSSHRDMRIGVFGALGLAQGICLLISTLWSIYACRNASKALHGQLLTNILRAPMRFFDTTPTGRIVNRFSGDISTVDDLLPQTLRSWMMCFFGIAGTLVMICMATPVFAIIIIPLSILYISVQVFYVATSRQLRRLDSVTKSPIYSHFSETVTGLPIIRAFEHQQRFLAWNEKQIDINQKCVFSWITSNRWLAIRLELVGNLVVFCSALLLVIYRKTLTGDVVGFVLSNALNITQTLNWLVRMTSEAETNIVAVERISEYINVENEAPWVTDKRPPADWPRHGEIQFNNYQVRYRPELDLVLKGITCNIKSGEKVGVVGRTGAGKSSLTNCLFRILESAGGQIIIDGIDVASIGLHDLRERLTIIPQDPILFSGSLRMNLDPFNKYSDEEVWRALELAHLRSFVSGLQLGLLSEVTEGGDNLSIGQRQLLCLGRAVLRKSKILVLDEATAAVDLETDSLIQTTIRKEFSQCTVITIAHRLHTIMDSDKIMVLDNGKIVEYGSPEELLSNRGSFYLMAKEAGIENVNHTEL"}}, "substrate": "C=CC1=C(C)/C(=C/c2[nH]c(Cc3[nH]c(/C=C4\\NC(=O)C(C)=C4C=C)c(C)c3CCC(=O)O[C@@H]3O[C@@H](C(=O)O)[C@H](O)[C@@H](O)[C@@H]3O)c(CCC(=O)O[C@@H]3O[C@H](C(=O)O)[C@H](O)[C@H](O)[C@@H]3O)c2C)NC1=O", "assay": "TP_TRANSPORTER: uptake in bile canalicular membranes from Wistar rat", "type": "functional, cell membranes, Bile canalicular membrane", "data": [{"protein": "B1", "values": [{"measurement": "Km", "value": 71, "unit": "µM"}]}]}
